This data set deals with the molecule itself. The experiment in a line: cryo-EM structure; single-particle cryo-EM; 1 mg/mL AQP7 in GDN on Quantifoil Cu R1.2/1.3 holey carbon grids, 4 °C; octamer = dimer of tetramers; D4 (2.55 Å) and C1 (3.0 Å) reconstructions.

The results in this text go back to PMC9898259, “Cryo-EM structure supports a role of AQP7 as a junction protein” (Nature Communications, 2023).

Usually stoichiometry N stands for the number of molecules, sites or subunits per partner or assembly.

B1: Human aquaglyceroporin 7 (AQP7), full-length, C-terminal poly-histidine tag (natural protein, UniProt O14520 1-342, looked up)
chain: MVQASGHRRSTRGSKMVSWSVIAKIQEILQRKMVREFLAEFMSTYVMMVFGLGSVAHMVLNKKYGSYLGVNLGFGFGVTMGVHVAGRISGAHMNAAVTFANCALGRVPWRKFPVYVLGQFLGSFLAAATIYSLFYTAILHFSGGQLMVTGPVATAGIFATYLPDHMTLWRGFLNEAWLTGMLQLCLFAITDQENNPALPGTEALVIGILVVIIGVSLGMNTGYAINPSRDLPPRIFTFIAGWGKQVFSNGENWWWVPVVAPLLGAYLGGIIYLVFIGSTIPREPLKLEDSVAYEDHGITVLPKMGSHEPTISPLTPVSVSPANRSSVHPAPPLHESMALEHF
notes: Aquaporin-7 (aquaglyceroporin 7), human, full-length gene; residues 25-277 modelled in the 2.55 Å map; Tetramers that pair into an octamer (dimer of tetramers) in the cryo-EM structure; only ~47% of all particles were in the octamer class; also called human AQP7; source: P. pastoris GS115 aqy1Δ::HIS4 agp1Δ::NatMX, purified (Ni-NTA, size-exclusion chromatography) in GDN
Take B1: the “stoichiometry N” value is 8.
